Data as given in publication PMC3081348, “Kaposi's Sarcoma-Associated Herpesvirus-Encoded LANA Down-Regulates IL-22R1 Expression through a Cis-Acting Element within the Promoter Region”.

Key:
[1] = molecular target: T1, LANA-C (C-terminus of LANA) (Kaposi's sarcoma-associated herpesvirus …, UniProt Q9QR71 918-1129); test: EMSA; 4 mM Mg2+, poly(dI-dC); affinity similar to LBS1; EMSA: 20 mM Tris/HCl pH 7.4, 100 mM NaCl, 4 mM MgCl2, 0.25 mM EDTA, 1 mM DTT, 0.5 ug poly(dI-dC), 10% glycerol, 100 ng labeled oligo, 0-400 ng LANA-C, 20 min at room temperature; 6.5% native PAGE on ice; settings: protein: recombinant; tags: His; chain copies: 2; annealed sense and antisense oligos
T1 sequence (Q9QR71 918-1129): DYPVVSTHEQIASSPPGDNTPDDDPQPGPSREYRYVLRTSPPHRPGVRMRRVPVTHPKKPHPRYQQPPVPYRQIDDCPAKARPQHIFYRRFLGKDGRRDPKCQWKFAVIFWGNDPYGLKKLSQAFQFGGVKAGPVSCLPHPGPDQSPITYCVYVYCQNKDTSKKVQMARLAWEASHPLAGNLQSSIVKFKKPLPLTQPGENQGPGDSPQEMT

[2] = molecular target: T1, LANA-C (C-terminus of LANA); test: EMSA; 4 mM Mg2+, poly(dI-dC); EMSA: 20 mM Tris/HCl pH 7.4, 100 mM NaCl, 4 mM MgCl2, 0.25 mM EDTA, 1 mM DTT, 0.5 ug poly(dI-dC), 10% glycerol, 100 ng labeled oligo, 0-400 ng LANA-C, 20 min at room temperature; 6.5% native PAGE on ice; settings: protein: recombinant, tags: His, chain copies: 2, annealed sense and antisense oligos

B1: LBS-like (IL-22R1 promoter -69 to -34) (dsDNA)
DNA 1: TCCCCGCCCCATGCCCGGGTGGAGCCAGCTGCCAG
DNA 2: CTGGCAGCTGGCTCCACCCGGGCATGGGGCGGGGA
[1]
  binding result: binds

B2: LBS (37 bp, TR DNA LBS1) (dsDNA)
DNA 1: GCGGAATTCGGCCCCATGCCCGGGCGGGAGGCGGGAT
DNA 2: ATCCCGCCTCCCGCCCGGGCATGGGGCCGAATTCCGC
[2]; label: 5'-biotin
  binding result: binds

B3: mLBS-like (scrambled LBS-like) (dsDNA)
DNA 1: TCCCCACCGGCTCCGCGCGTGGAGCCAGCTGCCAG
DNA 2: CTGGCAGCTGGCTCCACGCGCGGAGCCGGTGGGGA
[2]
  binding result: no binding
